Drawing on patent US20100144607 (published 2010), this text covers Ki for 9 molecules.

For orientation: Ki means the equilibrium dissociation constant of an inhibitor or competing ligand from its target.

Bridge positions count the residues as written; N and C are the ends. Ends that are not written are not given here.

For the assay, the target named is trypsin. Kind of assay: other, trypsin inhibition.

B1: Seq07 (peptide)
chain: IPRCRKMPGVKMC
modifications: disulfide 4-13; not fully specified
Regarding B1, the Ki worked out at 20 nM.

B2: Seq08 (peptide)
chain: IPRCRKMPGVKMC
modifications: disulfide 4-13; not fully specified
Consider B2, for which affinity was put at a Ki of 24.8 nM.

B3: Seq03 (peptide)
chain: VEQCTIIGDAKDC
modifications: disulfide 4-13
With B3, the Ki was found to be 63.6 nM.

B4: Seq01 (peptide)
chain: IPRCRKMPGVKMC
modifications: disulfide 4-13
For the molecule B4, the Ki was determined as 22.5 nM.

B5: Seq09 (peptide)
chain: IPRCRKMPGVKMC
modifications: disulfide 4-13; not fully specified
B5 showed an inhibition constant Ki of 21.8 nM.

B6: Seq04 (peptide)
chain: VQQCSEIAGAKPC
modifications: disulfide 4-13
With B6, the affinity, expressed as Ki, was 42 nM.

B7: Seq06 (peptide)
chain: IPRCRAMPGVKMC
modifications: disulfide 4-13
B7: the Ki came to 24.2 nM.

B8: Seq05 (peptide)
chain: LHRCDKIADAKPC
modifications: disulfide 4-13
Take B8: the affinity corresponds to a Ki of 44 nM.

B9: Seq02 (peptide)
chain: VEQCTIIGDEKDC
modifications: disulfide 4-13
In turn, B9 gave a Ki of 24 nM.
